In US20220177593A1 (published 2022):
Residue numbers refer to the chain shown, from its start.

B1: Ab301 (antibody, V domains shown)
VH: EVKLEASGGGLVQPGMSVKLSCTTSGFTFSDYWMEWVRQAPGKGLEWVAEIRNKVNNYATYYGKSVKGRFTISRDDSKSIVYLQMNSIRSEDTGIYYCNTLRLFAYWGQGTLVTVSA
VL: DIVMTQAPLSISVTPGESPSMSCRSSKSLLHRNGITYVYWYLQKPGKSPQLLIYRMSTLASGVPDRFSGSGSETDFTLKINKVEAEDVGIYYCGQLLENPYTFGAGTRLEIK
B2: Ab303 (antibody, V domains shown)
VH: EVQLVESGGGVVQPGRSLRLSCAASGFTFSDYWMEWVRQAPGKGLEWVAEIRNKVNNYATYYGKSVKGRFTISRDNSKNTLYLQMNSLRAEDTAVYYCNTLRLFAYWGQGTLVTVSS
VL: DIQMTQSPSSLSASVGDRVTITCRSSKSLLHRQGITYVYWYQQKPGKVPKLLIYRMSTLASGVPSRFSGSGSGTDFTLTISSLQPEDVATYYCGQLLENPYTFGQGTKLEIK
B3: Ab302 (antibody, V domains shown)
VH: B2 VH with V11L, Q13K, R16G, R19K, N76D, R89K, A90T
VL: B2 VL
B4: Ab304 (antibody, V domains shown)
VH: B2 VH with V11L, R16G, A49G, N76E, T80S, R89K, A90T, L112T
VL: B2 VL
B5: Ab305 (antibody, V domains shown)
VH: B2 VH with V11L, A23T, A49G, N76D, N79S, T80I, L81A, R89K, A90T, S117A
VL: B2 VL

Molecular target: human Axl expressed on the surface of cells (human, UniProt P30530 26-894)
Sequence (P30530 26-894): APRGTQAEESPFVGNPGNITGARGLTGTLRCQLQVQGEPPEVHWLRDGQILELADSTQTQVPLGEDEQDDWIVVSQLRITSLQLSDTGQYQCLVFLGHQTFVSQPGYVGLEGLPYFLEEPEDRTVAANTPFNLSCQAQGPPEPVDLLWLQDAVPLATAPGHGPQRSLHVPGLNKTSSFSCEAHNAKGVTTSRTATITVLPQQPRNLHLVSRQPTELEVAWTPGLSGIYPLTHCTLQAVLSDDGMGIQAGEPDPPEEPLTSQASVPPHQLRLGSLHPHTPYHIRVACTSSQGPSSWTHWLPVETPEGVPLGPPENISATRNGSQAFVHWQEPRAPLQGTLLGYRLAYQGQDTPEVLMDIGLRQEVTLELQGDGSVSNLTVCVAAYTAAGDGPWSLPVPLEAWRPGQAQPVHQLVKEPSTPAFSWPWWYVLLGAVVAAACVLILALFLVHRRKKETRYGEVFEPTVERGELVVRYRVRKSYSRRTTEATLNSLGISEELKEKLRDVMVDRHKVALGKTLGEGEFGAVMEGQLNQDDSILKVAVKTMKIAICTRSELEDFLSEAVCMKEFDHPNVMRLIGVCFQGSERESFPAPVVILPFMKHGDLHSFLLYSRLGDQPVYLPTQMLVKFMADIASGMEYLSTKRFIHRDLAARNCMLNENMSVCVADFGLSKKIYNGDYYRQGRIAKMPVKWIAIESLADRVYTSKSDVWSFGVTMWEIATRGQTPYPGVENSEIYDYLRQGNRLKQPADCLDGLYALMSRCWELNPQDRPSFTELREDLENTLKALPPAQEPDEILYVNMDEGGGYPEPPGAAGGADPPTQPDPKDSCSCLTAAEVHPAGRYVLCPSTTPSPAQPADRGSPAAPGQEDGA
Assay: flow cytometry

Binder | EC50
B1 | 0.025 µg/mL

Molecular target: recombinant human Axl-msFc (human, UniProt P30530 26-449)
Sequence (P30530 26-449): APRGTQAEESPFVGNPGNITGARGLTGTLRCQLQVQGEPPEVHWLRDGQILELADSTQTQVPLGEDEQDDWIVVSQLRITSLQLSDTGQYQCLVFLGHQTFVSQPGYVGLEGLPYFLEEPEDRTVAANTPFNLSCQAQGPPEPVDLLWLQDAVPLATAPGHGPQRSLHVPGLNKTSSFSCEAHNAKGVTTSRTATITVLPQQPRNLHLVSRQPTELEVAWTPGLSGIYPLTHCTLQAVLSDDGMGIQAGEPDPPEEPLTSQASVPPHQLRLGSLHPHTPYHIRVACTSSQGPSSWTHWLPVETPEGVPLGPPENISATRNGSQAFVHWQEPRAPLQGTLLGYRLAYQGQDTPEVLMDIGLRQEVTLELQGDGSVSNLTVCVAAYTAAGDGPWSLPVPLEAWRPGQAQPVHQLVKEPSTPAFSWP
Assay: ELISA; 4-P fit parameter C

Binder | EC50
B2 | 0.019 µg/mL
B3 | 0.02 µg/mL
B4 | 0.018 µg/mL
B1 | 0.019 µg/mL
B5 | 0.019 µg/mL

Molecular target: Axl (human, UniProt P30530 26-449, biotinylated (site not stated))
Sequence (P30530 whole entry): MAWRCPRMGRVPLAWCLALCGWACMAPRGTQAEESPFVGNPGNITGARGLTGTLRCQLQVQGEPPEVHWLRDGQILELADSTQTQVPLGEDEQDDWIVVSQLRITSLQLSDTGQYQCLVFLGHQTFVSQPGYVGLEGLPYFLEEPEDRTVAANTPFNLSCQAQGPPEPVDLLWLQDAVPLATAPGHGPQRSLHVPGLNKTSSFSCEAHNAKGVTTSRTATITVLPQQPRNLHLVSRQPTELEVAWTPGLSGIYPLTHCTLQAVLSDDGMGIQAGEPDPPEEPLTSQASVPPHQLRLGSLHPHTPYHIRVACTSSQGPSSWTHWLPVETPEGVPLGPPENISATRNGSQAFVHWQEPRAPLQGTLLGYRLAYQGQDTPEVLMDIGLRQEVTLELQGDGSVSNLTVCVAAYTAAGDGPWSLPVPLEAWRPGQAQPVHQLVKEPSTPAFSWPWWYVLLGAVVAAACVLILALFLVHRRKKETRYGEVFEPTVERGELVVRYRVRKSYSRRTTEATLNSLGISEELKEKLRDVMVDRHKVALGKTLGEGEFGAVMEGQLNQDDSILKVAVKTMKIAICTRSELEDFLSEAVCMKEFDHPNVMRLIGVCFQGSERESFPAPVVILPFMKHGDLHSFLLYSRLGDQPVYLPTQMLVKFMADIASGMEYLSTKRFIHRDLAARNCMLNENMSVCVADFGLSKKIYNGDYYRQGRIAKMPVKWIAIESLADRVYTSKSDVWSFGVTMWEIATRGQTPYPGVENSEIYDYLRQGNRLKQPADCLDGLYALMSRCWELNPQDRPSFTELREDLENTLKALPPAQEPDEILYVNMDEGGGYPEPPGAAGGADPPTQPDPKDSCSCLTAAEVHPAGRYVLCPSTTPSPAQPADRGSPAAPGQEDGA
Assay: BLI

Binder | Kd
B2 | 0.386 nM
B3 | 0.705 nM
B4 | 0.909 nM
B1 | 0.466 nM
B5 | 1.55 nM
